These results are taken from patent publication US20240425830, “ENGINEERED CAS12I NUCLEASE, EFFECTOR PROTEIN AND USE THEREOF” (Institute of Zoology, Chinese Academy of Sciences, published 2024).

Data set [1] concerns the target T1, Cas12i2 E563R (E563R).
T1 chain: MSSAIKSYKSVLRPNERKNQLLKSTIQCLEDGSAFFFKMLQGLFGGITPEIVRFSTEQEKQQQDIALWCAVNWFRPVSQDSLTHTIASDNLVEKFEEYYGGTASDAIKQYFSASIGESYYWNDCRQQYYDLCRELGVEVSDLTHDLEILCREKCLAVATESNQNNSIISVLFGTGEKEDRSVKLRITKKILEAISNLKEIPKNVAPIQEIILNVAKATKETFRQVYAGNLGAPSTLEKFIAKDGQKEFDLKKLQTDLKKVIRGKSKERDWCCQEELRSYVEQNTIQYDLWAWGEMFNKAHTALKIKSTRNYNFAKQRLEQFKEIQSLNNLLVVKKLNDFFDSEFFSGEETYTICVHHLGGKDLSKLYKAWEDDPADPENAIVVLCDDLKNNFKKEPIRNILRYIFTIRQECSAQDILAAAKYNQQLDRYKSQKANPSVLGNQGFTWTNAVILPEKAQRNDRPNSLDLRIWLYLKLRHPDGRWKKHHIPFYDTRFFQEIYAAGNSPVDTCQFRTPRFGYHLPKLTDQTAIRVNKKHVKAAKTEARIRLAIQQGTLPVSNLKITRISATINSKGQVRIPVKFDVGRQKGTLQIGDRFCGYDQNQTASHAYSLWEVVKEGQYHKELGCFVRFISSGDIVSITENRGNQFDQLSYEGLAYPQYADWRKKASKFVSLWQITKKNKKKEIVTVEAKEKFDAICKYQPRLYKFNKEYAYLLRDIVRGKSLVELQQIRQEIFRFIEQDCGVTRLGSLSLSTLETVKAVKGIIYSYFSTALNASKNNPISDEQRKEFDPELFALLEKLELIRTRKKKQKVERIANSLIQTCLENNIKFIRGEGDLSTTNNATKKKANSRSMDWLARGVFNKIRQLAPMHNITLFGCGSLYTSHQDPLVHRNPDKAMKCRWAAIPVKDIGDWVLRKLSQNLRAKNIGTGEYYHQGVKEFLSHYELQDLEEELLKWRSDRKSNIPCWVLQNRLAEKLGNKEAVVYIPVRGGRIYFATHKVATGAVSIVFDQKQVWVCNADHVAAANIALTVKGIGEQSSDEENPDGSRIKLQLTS
Nature of the data set: cell_activity; HEK293T. The protocol:
(§1) HEK293T cells were cultured in DMEM (Gibco) comprising 1% penicillin-streptomycin (Gibco) and 10% fetal calf serum (Gibco). Cells were seeded in 24-well cell culture dishes (Corning) for 16 hours until cell density reached 70%. By using Lipofectamine 3000 (Invitrogen), 600 ng of plasmid encoding Cas12i2 protein and 300 ng of plasmid encoding crRNA were transfected into each 24-well cell culture dish. After approximately 68 hours of transfection, HEK293T cells to be subjected to fluorescence-activated cell sorting (FACS) were digested with trypsin-EDTA (0.05%) (Gibco). Cell sorting was performed using MoFlo XDP (Beckman Coulter) with GFP channel.
(§2) FACS-sorted GFP-positive HEK293T cells were lysed with buffer L and incubated at 55° C. for 3 h and then at 95° C. for 10 min. PCR amplification of dsDNA fragments comprising target sites in different genomic sites was performed using corresponding primers. For targeted deep sequencing, cell lysate was directly used as a template to directly amplify the target site through barcoded PCR. PCR products were purified and pooled into several libraries for high-throughput sequencing. The frequency (%) of indels was analyzed using CRISPResso2 software by calculating the ratio of reads comprising indels. In this application, the index of indel frequency (%) was uniformly used to compare and analyze gene editing efficiency. Reads with less than 0.05% of complete reads are discarded.

Data set [2] addresses T2, Cas12i2 wild-type.
T2 chain: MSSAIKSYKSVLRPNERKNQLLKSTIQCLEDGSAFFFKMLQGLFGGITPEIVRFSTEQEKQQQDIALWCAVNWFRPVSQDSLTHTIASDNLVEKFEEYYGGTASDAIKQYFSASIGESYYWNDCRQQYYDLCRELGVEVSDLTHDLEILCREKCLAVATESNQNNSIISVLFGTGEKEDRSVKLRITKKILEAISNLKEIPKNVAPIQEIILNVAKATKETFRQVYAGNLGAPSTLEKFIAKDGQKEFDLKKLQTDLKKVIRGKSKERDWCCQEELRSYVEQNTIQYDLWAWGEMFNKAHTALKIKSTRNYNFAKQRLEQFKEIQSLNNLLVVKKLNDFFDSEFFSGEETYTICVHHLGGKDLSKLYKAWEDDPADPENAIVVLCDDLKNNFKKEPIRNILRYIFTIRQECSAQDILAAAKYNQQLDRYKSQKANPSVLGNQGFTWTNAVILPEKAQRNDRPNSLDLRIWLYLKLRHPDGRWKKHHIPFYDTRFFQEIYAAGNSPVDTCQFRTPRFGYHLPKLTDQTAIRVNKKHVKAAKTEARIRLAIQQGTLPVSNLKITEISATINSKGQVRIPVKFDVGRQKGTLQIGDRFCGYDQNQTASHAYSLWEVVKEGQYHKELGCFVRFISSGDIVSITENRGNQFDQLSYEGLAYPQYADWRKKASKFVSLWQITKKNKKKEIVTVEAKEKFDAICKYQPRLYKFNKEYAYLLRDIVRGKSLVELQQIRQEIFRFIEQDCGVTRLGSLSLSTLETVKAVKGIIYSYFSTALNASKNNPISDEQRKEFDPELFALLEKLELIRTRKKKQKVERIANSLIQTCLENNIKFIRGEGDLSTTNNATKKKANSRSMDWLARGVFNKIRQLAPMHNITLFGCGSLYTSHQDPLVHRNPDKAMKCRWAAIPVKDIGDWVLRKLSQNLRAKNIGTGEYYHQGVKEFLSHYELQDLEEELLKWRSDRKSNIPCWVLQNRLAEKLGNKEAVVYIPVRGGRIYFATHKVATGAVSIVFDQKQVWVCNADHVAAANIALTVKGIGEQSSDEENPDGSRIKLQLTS
As to the kind of experiment: cell_activity; HEK293T. Here is the method: as §1, §2

B1: crRNA RNF2-7 ; RNF2-7 target (ssRNA ; dsDNA)
RNA: AGAAAUCCGUCUUUCAUUGACGGUUCAACAUAUCCAAACAAAU
DNA 1: TTCAACATATCCAAACAAAT
DNA 2: ATTTGTTTGGATATGTTGAA
Regarding B1, the figures for the activity in data set [1] and in data set [2] were 68.3 % indel and 11.7 % indel, respectively.

B2: crRNA CCR5-3 ; CCR5-3 target (ssRNA ; dsDNA)
RNA: AGAAAUCCGUCUUUCAUUGACGGAGGCCAAAGAAUUCCUGGAA
DNA 1: AGGCCAAAGAATTCCTGGAA
DNA 2: TTCCAGGAATTCTTTGGCCT
Consider B2, for which the activity in data set [1] stood at 55.5 % indel; in data set [2], 10.4 % indel.
